From paper PMC10397247 come the findings set out here.

In assay [1] the target is T1, O8-bA.
T1 chain: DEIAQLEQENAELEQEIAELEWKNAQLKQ
Briefly: two-hybrid library CCNG1.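 Note: natural log of median RNA to DNA barcode read ratio; higher means stronger binding.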

Assay [2] deals with T2, O7-bA.
T2 chain: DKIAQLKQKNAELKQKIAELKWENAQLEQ
Briefly: two-hybrid library CCNG1.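 Note: natural log of median RNA to DNA barcode read ratio; higher means stronger binding.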

Assay [3] deals with T3, O9-bA.
T3 chain: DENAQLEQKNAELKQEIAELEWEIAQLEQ
Nature of the assay: two-hybrid library CCNG1.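 Note: natural log of median RNA to DNA barcode read ratio; higher means stronger binding.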

The target in assay [4] is T4, 4H87-AA.
T4 chain: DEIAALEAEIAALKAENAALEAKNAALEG
Nature of the assay: two-hybrid library CCmax.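 Note: natural log of median RNA to DNA barcode read ratio; higher means stronger binding.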 To be noted: mean of both orientations.

The target in assay [5] is T5, 4H3625-AA.
T5 chain: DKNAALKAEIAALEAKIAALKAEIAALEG
Briefly: two-hybrid library CCmax.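 Note: natural log of median RNA to DNA barcode read ratio; higher means stronger binding.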 Conditions: mean of both orientations.

In assay [6] the target is T6, 4H3409-AA.
T6 chain: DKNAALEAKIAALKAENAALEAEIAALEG
Nature of the assay: two-hybrid library CCmax.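 Note: natural log of median RNA to DNA barcode read ratio; higher means stronger binding.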 To be noted: mean of both orientations.

Assay [7] deals with T7, 4H3134-AA.
T7 chain: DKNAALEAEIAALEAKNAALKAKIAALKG
Nature of the assay: two-hybrid library CCmax. To be noted: mean of both orientations.

For assay [8], the target named is T8, 4H816-AA.
T8 chain: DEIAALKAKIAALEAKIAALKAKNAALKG
Nature of the assay: two-hybrid library CCmax. To be noted: mean of both orientations.

The target of assay [9] is T9, 4H390-AA.
T9 chain: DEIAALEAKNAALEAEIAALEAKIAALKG
Nature of the assay: two-hybrid library CCmax. To be noted: mean of both orientations.

In assay [10] the target is T10, 4H2985-AA.
T10 chain: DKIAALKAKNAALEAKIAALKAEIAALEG
Briefly: two-hybrid library CCmax.

For assay [11], the target named is T11, 4H3940-AA.
T11 chain: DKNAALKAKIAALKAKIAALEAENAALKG
Briefly: two-hybrid library CCmax. Conditions: mean of both orientations.

For assay [12], the target named is T12, 4H775-AA.
T12 chain: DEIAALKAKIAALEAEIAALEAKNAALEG
Briefly: two-hybrid library CCmax. Conditions: mean of both orientations.

The target of assay [13] is T13, 4H510-AA.
T13 chain: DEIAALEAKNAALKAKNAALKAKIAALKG
Nature of the assay: two-hybrid library CCmax. Conditions: mean of both orientations.

Assay [14] deals with T14, 4H94-AA.
T14 chain: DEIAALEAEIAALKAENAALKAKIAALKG
Nature of the assay: two-hybrid library CCmax. To be noted: mean of both orientations.

Assay [15] addresses T15, 4H850-AA.
T15 chain: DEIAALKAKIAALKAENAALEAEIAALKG
Briefly: two-hybrid library CCmax. Conditions: mean of both orientations.

Assay [16] concerns the target T16, 4H918-AA.
T16 chain: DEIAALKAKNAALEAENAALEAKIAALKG
Briefly: two-hybrid library CCmax. Conditions: mean of both orientations.

The target of assay [17] is T17, 4H967-AA.
T17 chain: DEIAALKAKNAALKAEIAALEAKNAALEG
Nature of the assay: two-hybrid library CCmax. To be noted: mean of both orientations.

For assay [18], the target named is T18, 4H909-AA.
T18 chain: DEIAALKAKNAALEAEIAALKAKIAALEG
Nature of the assay: two-hybrid library CCmax. Conditions: mean of both orientations.

Assay [19] concerns the target T19, 4H930-AA.
T19 chain: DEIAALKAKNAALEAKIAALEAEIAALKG
Nature of the assay: two-hybrid library CCmax. To be noted: mean of both orientations.

Assay [20] deals with T20, 4H953-AA.
T20 chain: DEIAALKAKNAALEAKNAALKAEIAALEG
Nature of the assay: two-hybrid library CCmax. Conditions: mean of both orientations.

Assay [21] has as its target T21, 4H891-AA.
T21 chain: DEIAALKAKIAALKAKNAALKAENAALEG
Briefly: two-hybrid library CCmax. Conditions: mean of both orientations.

Assay [22] deals with T22, 4H797-AA.
T22 chain: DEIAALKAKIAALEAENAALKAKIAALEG
Nature of the assay: two-hybrid library CCmax.

For assay [23], the target named is T23, 4H883-AA.
T23 chain: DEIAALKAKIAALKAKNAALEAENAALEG
Briefly: two-hybrid library CCmax. To be noted: mean of both orientations.

For assay [24], the target named is T24, 4H591-bA.
T24 chain: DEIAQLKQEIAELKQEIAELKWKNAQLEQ
Nature of the assay: two-hybrid library CCNG1.

Assay [25] deals with T25, 4H3497-bA.
T25 chain: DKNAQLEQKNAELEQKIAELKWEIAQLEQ
Nature of the assay: two-hybrid library CCNG1.

In assay [26] the target is T26, 4H3628-bA.
T26 chain: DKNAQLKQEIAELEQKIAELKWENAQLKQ
Briefly: two-hybrid library CCNG1.

Assay [27] has as its target T27, 4H3613-bA.
T27 chain: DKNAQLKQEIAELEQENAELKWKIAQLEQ
Briefly: two-hybrid library CCNG1.

In assay [28] the target is T28, 4H3926-bA.
T28 chain: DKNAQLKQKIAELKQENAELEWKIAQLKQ
Nature of the assay: two-hybrid library CCNG1.

For assay [29], the target named is T29, 4H626-bA.
T29 chain: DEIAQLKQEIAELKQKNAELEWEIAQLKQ
Nature of the assay: two-hybrid library CCNG1.

In assay [30] the target is T30, 4H906-bA.
T30 chain: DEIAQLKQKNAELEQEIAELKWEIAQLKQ
Briefly: two-hybrid library CCNG1.

In assay [31] the target is T31, 4H881-AA.
T31 chain: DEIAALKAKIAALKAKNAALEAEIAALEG
Briefly: two-hybrid library CCmax. To be noted: mean of both orientations.

In assay [32] the target is T32, 4H780-AA.
T32 chain: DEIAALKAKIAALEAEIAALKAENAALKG
Nature of the assay: two-hybrid library CCmax. To be noted: mean of both orientations.

Assay [33] has as its target T33, 4H717-AA.
T33 chain: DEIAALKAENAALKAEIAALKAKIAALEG
Briefly: two-hybrid library CCmax.

The target in assay [34] is T34, 4H794-AA.
T34 chain: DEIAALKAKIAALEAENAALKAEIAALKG
Briefly: two-hybrid library CCmax. To be noted: mean of both orientations.

The target of assay [35] is T35, 4H993-AA.
T35 chain: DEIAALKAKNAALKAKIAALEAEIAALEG
Briefly: two-hybrid library CCmax. Conditions: mean of both orientations.

For assay [36], the target named is T36, 4H906-AA.
T36 chain: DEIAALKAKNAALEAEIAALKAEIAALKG
Nature of the assay: two-hybrid library CCmax. Conditions: mean of both orientations.

Assay [37] concerns the target T37, APC8401-AA.
T37 chain: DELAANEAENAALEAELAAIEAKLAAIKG
Nature of the assay: two-hybrid library CCmax. To be noted: mean of both orientations.

In assay [38] the target is T38, APC3323-AA.
T38 chain: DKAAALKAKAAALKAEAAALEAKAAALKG
Nature of the assay: two-hybrid library CCmax.

Assay [39] addresses T39, APC3354-AA.
T39 chain: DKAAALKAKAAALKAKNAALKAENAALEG
Nature of the assay: two-hybrid library CCmax. Conditions: mean of both orientations.

Assay [40] concerns the target T40, APC9141-AA.
T40 chain: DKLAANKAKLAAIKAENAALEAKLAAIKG
Nature of the assay: two-hybrid library CCmax. Conditions: mean of both orientations.

Assay [41] deals with T41, APC542-AA.
T41 chain: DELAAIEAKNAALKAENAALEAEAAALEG
Briefly: two-hybrid library CCmax. To be noted: mean of both orientations.

The target in assay [42] is T42, APC9291-AA.
T42 chain: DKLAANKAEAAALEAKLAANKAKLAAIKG
Nature of the assay: two-hybrid library CCmax. Conditions: mean of both orientations.

For assay [43], the target named is T43, APC3881-AA.
T43 chain: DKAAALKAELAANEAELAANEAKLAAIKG
Briefly: two-hybrid library CCmax. To be noted: mean of both orientations.

Assay [44] has as its target T44, APC9806-AA.
T44 chain: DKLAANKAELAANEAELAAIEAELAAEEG
Nature of the assay: two-hybrid library CCmax. Conditions: mean of both orientations.

Assay [45] addresses T45, APC4336-AA.
T45 chain: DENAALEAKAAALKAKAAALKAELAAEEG
Nature of the assay: two-hybrid library CCmax. To be noted: mean of both orientations.

The target of assay [46] is T46, APC7524-AA.
T46 chain: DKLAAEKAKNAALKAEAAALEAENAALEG
Briefly: two-hybrid library CCmax. To be noted: mean of both orientations.

The target of assay [47] is T47, APC5531-AA.
T47 chain: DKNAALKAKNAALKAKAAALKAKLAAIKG
Briefly: two-hybrid library CCmax. Conditions: mean of both orientations.

Assay [48] addresses T48, APC6088-AA.
T48 chain: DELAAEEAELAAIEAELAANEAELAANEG
Briefly: two-hybrid library CCmax. To be noted: mean of both orientations.

The target in assay [49] is T49, APC9182-AA.
T49 chain: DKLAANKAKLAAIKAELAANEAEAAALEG
Briefly: two-hybrid library CCmax. To be noted: mean of both orientations.

Assay [50] addresses T50, APC4100-AA.
T50 chain: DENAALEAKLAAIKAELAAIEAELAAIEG
Briefly: two-hybrid library CCmax. Conditions: mean of both orientations.

The target in assay [51] is T51, APC8516-AA.
T51 chain: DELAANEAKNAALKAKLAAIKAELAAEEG
Nature of the assay: two-hybrid library CCmax. To be noted: mean of both orientations.

Assay [52] deals with T52, APC5009-AA.
T52 chain: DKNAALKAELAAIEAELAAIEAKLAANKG
Briefly: two-hybrid library CCmax. To be noted: mean of both orientations.

In assay [53] the target is T53, 4H968-bA.
T53 chain: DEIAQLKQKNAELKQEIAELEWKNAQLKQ
Nature of the assay: two-hybrid library CCNG1.

The target in assay [54] is T54, 4H953-bA.
T54 chain: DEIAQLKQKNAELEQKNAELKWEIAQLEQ
Nature of the assay: two-hybrid library CCNG1.

The target in assay [55] is T55, 4H967-bA.
T55 chain: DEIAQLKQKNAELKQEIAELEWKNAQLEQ
Briefly: two-hybrid library CCNG1.

On to DENAQLEQEIAELEQKNAELKWEIAQLEQ [O5-bA], for which the interaction score in [1] is -0.893; in assay [2] it was -0.303; in [3], -0.954.
As to DKIAALKAKNAALEAKIAALKAEIAALEG [4H2985-AA], the interaction score in assay [4] is -1.48; in [5], 0.889; in [6] it was -0.847; in assay [7], -0.682; in [8] it was -0.519; in assay [9], 1.71. The interaction score is 0.681 in assay [10], -0.918 in assay [11], -0.922 in assay [12] and -0.541 in assay [13].
In the case of DEIAALKAKIAALEAENAALKAKIAALEG [4H797-AA], the interaction score is 0.948 in [14]; 1.16 in assay [15]; -0.389 in [16]; -1.81 in assay [17]; -0.899 in assay [18]; -1.72 in [19]. Besides, the interaction score in [20] is -0.955; in [21], -1.35; in assay [22] it was 1.76; in assay [23] it was -1.4.
DKIAQLKQKNAELKQKIAELKWENAQLEQ [O7-bA]: the figures for the interaction score in assay [1], in [2] and in assay [3] were 2.08, -1.12 and -0.962, respectively.
Turning to DKNAQLEQKNAELEQKIAELKWEIAQLEQ [4H3497-bA], the interaction score in assay [24] is -1.08; in [25], -0.278; in [26], -0.547; in assay [27] it was -1.15; in assay [28], -1.24; in [29], -1.45. Moreover, the interaction score in [30] was -1.2.
For DKNAQLKQKIAELKQENAELEWKIAQLKQ [O6-bA], the figures for the interaction score in assay [1], in assay [2] and in assay [3] were 1.39, 0.795 and 0.339, respectively.
On to DEIAALKAENAALKAEIAALKAKIAALEG [4H717-AA], for which the interaction score in assay [31] is -1.15; in assay [32] it was -1.38; in [16] it was -1.34; in assay [17] it was -0.559; in [33], 1.89; in assay [34], -1.37. For the same molecule, the interaction score in [35] was 0.0522; in assay [20], -1.87; in assay [22] it was -1.4; in [36], -1.19; in assay [23], -1.82.
On to DKAAALKAKAAALKAEAAALEAKAAALKG [APC3323-AA], for which the interaction score in [37] was -1.35; in assay [38], 0.173; in assay [39], -1.64; in [40], -2.12; in [41], -1.45; in [42], -1.84. Also, the interaction score is -1.64 in assay [43]; -1.66 in assay [44]; -2.27 in assay [45]; -1.5 in assay [46]; -1.7 in assay [47]; -1.65 in assay [48]. For the same molecule, the interaction score in [49] was -1.64; in assay [50], 1.59; in [51], -1.75; in assay [52], -1.38.
As for DEIAQLKQKNAELEQKNAELKWEIAQLEQ [4H953-bA], the interaction score was -1.33 in assay [53], -0.648 in assay [54], -0.716 in assay [2] and -1.11 in [55].
